The target in assay [1] is T1, RING1B:BMI1 full-length heterodimer (human, UniProt Q99496 1-336; P35226 1-326).
T1 construct: also called RING1B:BMI1 dimer; source: High Five insect cells (baculovirus, coexpressed from one vector), purified (Ni-NTA, twin strep-tag cleavage, SEC); not shown: twin strep-tag, N-terminal, cleaved; His6, C-terminal, kept
T1 sequence (looked up) 1: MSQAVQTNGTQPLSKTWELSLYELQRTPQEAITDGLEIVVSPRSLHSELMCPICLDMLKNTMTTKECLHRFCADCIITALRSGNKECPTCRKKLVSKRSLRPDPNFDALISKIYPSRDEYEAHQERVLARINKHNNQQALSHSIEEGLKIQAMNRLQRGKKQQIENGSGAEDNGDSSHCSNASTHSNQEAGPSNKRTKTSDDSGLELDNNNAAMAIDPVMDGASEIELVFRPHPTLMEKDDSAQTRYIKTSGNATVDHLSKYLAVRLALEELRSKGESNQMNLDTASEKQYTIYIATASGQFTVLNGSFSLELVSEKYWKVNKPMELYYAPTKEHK
T1 sequence (looked up) 2: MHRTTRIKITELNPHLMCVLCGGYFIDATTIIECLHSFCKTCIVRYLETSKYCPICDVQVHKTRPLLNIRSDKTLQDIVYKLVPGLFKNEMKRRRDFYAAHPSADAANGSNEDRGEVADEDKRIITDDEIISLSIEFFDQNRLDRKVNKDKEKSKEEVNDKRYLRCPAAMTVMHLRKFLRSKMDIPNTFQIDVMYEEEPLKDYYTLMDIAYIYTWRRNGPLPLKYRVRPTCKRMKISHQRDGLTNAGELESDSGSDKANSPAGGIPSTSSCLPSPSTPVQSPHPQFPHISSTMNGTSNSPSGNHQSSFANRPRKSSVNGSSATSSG
The assay can be described thus: SEC; purified RYBP mixed with purified RING1B:BMI1 at a 1:1 molar ratio, cation exchange, then SEC in 25 mM Tris-HCl pH 7, 150 mM NaCl, 10% glycerol, 2 mM DTT. To be noted: both partners purified. (SEC sorts molecules by how far they enter the pores of the column.)

In a further assay the target is T2, human ubiquitin (human, UniProt P0CG47 1-76, conjugated to H2A).
T2 construct: human ubiquitin, the cut product of the precursor; Stood as the ubiquitin moiety of H2Aub1 in the nucleosome; source: bought: Boston Biochem; conjugated to H2A of the nucleosome in vitro
The assay can be described thus: cryo-EM structure; vPRC1:Nuc_(H2Aub1); Nuc_(H2Aub1)/vPRC1 ratio of 1:5 in UB buffer, 1 h at 4 °C; biotinylated nucleosomes bound to streptavidin-coated grids, two additional washes. To be noted: both partners purified.

Assay [2] has as its target T3, human RING1B, full length (human, UniProt Q99496 1-336).
T3 construct: In the cryo-EM sample a subunit of vPRC1; residues 15-115 were built; source: High Five insect cells (baculovirus), coexpressed with BMI1, purified; not shown: twin strep-tag, N-terminal, cleaved
T3 sequence (looked up): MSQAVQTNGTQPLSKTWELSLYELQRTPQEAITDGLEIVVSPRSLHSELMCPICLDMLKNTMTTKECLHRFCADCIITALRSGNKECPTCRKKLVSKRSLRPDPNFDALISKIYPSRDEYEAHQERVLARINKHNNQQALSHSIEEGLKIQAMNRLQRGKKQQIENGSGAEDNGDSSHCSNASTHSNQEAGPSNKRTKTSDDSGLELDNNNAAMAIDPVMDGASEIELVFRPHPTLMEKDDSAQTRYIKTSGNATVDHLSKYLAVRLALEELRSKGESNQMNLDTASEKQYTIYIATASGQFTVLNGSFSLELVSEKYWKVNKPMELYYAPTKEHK
The assay can be described thus: SEC; RING1B and BMI1 coexpressed in insect cells from one vector, Ni-NTA (His tag on BMI1), tag cleavage, SEC (S200). To be noted: partners not purified.

Assay [3] concerns the target T4, Drosophila melanogaster histone H4 (D. melanogaster, UniProt P84040 1-103).
T4 construct: histone H4, D. melanogaster; Stood within the nucleosome; source: bought: The Histone Source (Colorado State University); in the reconstituted nucleosome
The assay can be described thus: cryo-EM structure; vPRC1:Nuc; Nuc/vPRC1 ratio of 1:10 in UB buffer, 1 h at 4 °C; biotinylated nucleosomes bound to streptavidin-coated grids. To be noted: both partners purified.

B1: human RYBP, full length (natural protein, UniProt Q8N488 1-228, looked up)
chain: MTMGDKKSPTRPKRQAKPAADEGFWDCSVCTFRNSAEAFKCSICDVRKGTSTRKPRINSQLVAQQVAQQYATPPPPKKEKKEKVEKQDKEKPEKDKEISPSVTKKNTNKKTKPKSDILKDPPSEANSIQSANATTKTSETNHTSRPRLKNVDRSTAQQLAVTVGNVTVIITDFKEKTRSSSTSSSTVTSSAGSEQQNQSSSGSESTDKGSSRSSTPKGDMSAVNDESF
notes: In the cryo-EM sample it stood as a subunit of vPRC1; residues 23-58 were built; source: High Five insect cells (baculovirus), purified (Ni-NTA, His tag cleavage, reverse Ni-NTA); not shown: His6, N-terminal, cleaved
For the molecule B1, the binding result (in assay [1]; in the assay with human ubiquitin) was “binds” throughout.

B2: RYBP_(T31A/F32A) (natural protein, human, UniProt Q8N488 1-228, looked up)
chain: MTMGDKKSPTRPKRQAKPAADEGFWDCSVCAARNSAEAFKCSICDVRKGTSTRKPRINSQLVAQQVAQQYATPPPPKKEKKEKVEKQDKEKPEKDKEISPSVTKKNTNKKTKPKSDILKDPPSEANSIQSANATTKTSETNHTSRPRLKNVDRSTAQQLAVTVGNVTVIITDFKEKTRSSSTSSSTVTSSAGSEQQNQSSSGSESTDKGSSRSSTPKGDMSAVNDESF
notes: source: High Five insect cells (baculovirus), purified following the same procedure as the wild-type protein; not shown: His6, N-terminal, cleaved
As to B2, the binding result in assay [1] is reported as “binds”.

B3: RYBP_(R47A/R53A/R56A) (natural protein, human, UniProt Q8N488 1-228, looked up)
chain: MTMGDKKSPTRPKRQAKPAADEGFWDCSVCTFRNSAEAFKCSICDVAKGTSTAKPAINSQLVAQQVAQQYATPPPPKKEKKEKVEKQDKEKPEKDKEISPSVTKKNTNKKTKPKSDILKDPPSEANSIQSANATTKTSETNHTSRPRLKNVDRSTAQQLAVTVGNVTVIITDFKEKTRSSSTSSSTVTSSAGSEQQNQSSSGSESTDKGSSRSSTPKGDMSAVNDESF
notes: as for B2
For the molecule B3, the binding result in assay [1] is “binds”.

B4: human BMI1, full length (natural protein, UniProt P35226 1-326, looked up)
chain: MHRTTRIKITELNPHLMCVLCGGYFIDATTIIECLHSFCKTCIVRYLETSKYCPICDVQVHKTRPLLNIRSDKTLQDIVYKLVPGLFKNEMKRRRDFYAAHPSADAANGSNEDRGEVADEDKRIITDDEIISLSIEFFDQNRLDRKVNKDKEKSKEEVNDKRYLRCPAAMTVMHLRKFLRSKMDIPNTFQIDVMYEEEPLKDYYTLMDIAYIYTWRRNGPLPLKYRVRPTCKRMKISHQRDGLTNAGELESDSGSDKANSPAGGIPSTSSCLPSPSTPVQSPHPQFPHISSTMNGTSNSPSGNHQSSFANRPRKSSVNGSSATSSG
notes: In the cryo-EM sample a subunit of vPRC1; residues 3-107 were built; also called BIM1; source: High Five insect cells (baculovirus), coexpressed with RING1B, purified; not shown: His6, C-terminal, kept
Turning to B4, the binding result in assay [2] and in assay [3] was “binds” throughout.

The record behind these values is paper PMC11257959, “Structural basis of the histone ubiquitination read–write mechanism of RYBP–PRC1” (Nature Structural & Molecular Biology, 2024).
